According to the supplement of paper PMC5998384:

How the values were obtained:
[1] = tested on: HeLa Kyoto; assay: melting temperature (median over replicates), in situ; higher = more thermally stable
[2] = tested on: HeLa Kyoto; assay: solubility in G1/S (NP-40 vs SDS abundance) (log2 ratio); higher = more soluble; conditions: cell cycle stage: G1/S
[3] = tested on: HeLa Kyoto; assay: solubility change mitosis vs G1/S (difference of NP-40 vs SDS log2 ratios) (log2 ratio difference); higher = more soluble in mitosis
[4] = tested on: HeLa Kyoto; assay: thermal stability score vs G1/S (z-score of summed log2 fold changes over temperatures); higher = more thermally stable than in G1/S
[5] = cell cycle stage: early G1 (4.5 h after nocodazole release)
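Wherever melting temperature (median over replicates), in situ is given: HeLa Kyoto cells synchronized by double thymidine or nocodazole block, proteins quantified by TMT10plex mass spectrometry, three independent biological replicates.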
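Wherever solubility change mitosis vs G1/S (difference of NP-40 vs SDS log2 ratios) is given: synchronized HeLa Kyoto cells (double thymidine block for G1/S, nocodazole release for mitosis), protein amounts in NP-40 versus SDS lysates quantified by mass spectrometry, three biological replicates.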
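Wherever solubility in G1/S (NP-40 vs SDS abundance) is given: HeLa Kyoto cells arrested at G1/S by double thymidine block, proteins quantified by TMT10plex mass spectrometry in mild NP-40 versus SDS extracts, three biological replicates.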
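Wherever thermal stability score vs G1/S (z-score of summed log2 fold changes over temperatures) is given: synchronized HeLa Kyoto cells, proteins quantified by TMT10plex mass spectrometry, three biological replicates, mitosis taken 0.5 h after nocodazole release, G1/S directly after double thymidine block.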

Substance	melting temperature ([1]; cell cycle stage: G1/S)	melting temperature ([1]; cell cycle stage: mitosis)	solubility in G1/S (log2) [2]	solubility change mitosis (log2) [3]	thermal stability score [4, 5]	thermal stability score ([4]; cell cycle stage: mitosis)
MATAAETSASEPEAESKAGPKADGEEDEVKAARTRRKVLSRAVAAATYKTMGPAWDQQEEGVSESDGDEYAMASSAESSPGEYEWEYDEEEEKNQLEIERLEEQLSINVYDYNCHVDLIRLLRLEGELTKVRMARQKMSEIFPLTEELWLEWLHDEISMAQDGLDREHVYDLFEKAVKDYICPNIWLEYGQYSVGGIGQKGGLEKVRSVFERALSSVGLHMTKGLALWEAYREFESAIVEAARLEKVHSLFRRQLAIPLYDMEATFAEYEEWSEDPIPESVIQNYNKALQQLEKYKPYEEALLQAEAPRLAEYQAYIDFEMKIGDPARIQLIFERALVENCLVPDLWIRYSQYLDRQLKVKDLVLSVHNRAIRNCPWTVALWSRYLLAMERHGVDHQVISVTFEKALNAGFIQATDYVEIWQAYLDYLRRRVDFKQDSSKELEELRAAFTRALEYLKQEVEERFNESGDPSCVIMQNWARIEARLCNNMQKARELWDSIMTRGNAKYANMWLEYYNLERAHGDTQHCRKALHRAVQCTSDYPEHVCEVLLTMERTEGSLEDWDIAVQKTETRLARVNEQRMKAAEKEAALVQQEEEKAEQRKRARAEKKALKKKKKIRGPEKRGADEDDEKEWGDDEEEQPSKRRRVENSIPAAGETQNVEVAAGPAGKCAAVDVEPPSKQKEKAASLKRDMPKVLHDSSKDSITVFVSNLPYSMQEPDTKLRPLFEACGEVVQIRPIFSNRGDFRGYCYVEFKEEKSALQALEMDRKSVEGRPMFVSPCVDKSKNPDFKVFRYSTSLEKHKLFISGLPFSCTKEELEEICKAHGTVKDLRLVTNRAGKPKGLAYVEYENESQASQAVMKMDGMTIKENIIKVAISNPPQRKVPEKPETRKAPGGPMLLPQTYGARGKGRTQLSLLPRALQRPSAAAPQAENGPAAAPAVAAPAATEAPKMSNADFAKLFLRK [SART3]	48.2 °C	49.2 °C	-0.112	-0.103	1.98	4.74
MSEEQFGGDGAAAAATAAVGGSAGEQEGAMVAATQGAAAAAGSGAGTGGGTASGGTEGGSAESEGAKIDASKNEEDEGHSNSSPRHSEAATAQREEWKMFIGGLSWDTTKKDLKDYFSKFGEVVDCTLKLDPITGRSRGFGFVLFKESESVDKVMDQKEHKLNGKVIDPKRAKAMKTKEPVKKIFVGGLSPDTPEEKIREYFGGFGEVESIELPMDNKTNKRRGFCFITFKEEEPVKKIMEKKYHNVGLSKCEIKVAMSKEQYQQQQQWGSRGGFAGRARGRGGGPSQNWNQGYSNYWNQGYGNYGYNSQGYGGYGGYDYTGYNNYYGYGDYSNQQSGYGKVSRRGGHQNSYKPY [HNRNPD]	55.6 °C	54.9 °C	0.068	0.191	-3.11	-2.98
MAAMETETAPLTLESLPTDPLLLILSFLDYRDLINCCYVSRRLSQLSSHDPLWRRHCKKYWLISEEEKTQKNQCWKSLFIDTYSDVGRYIDHYAAIKKAWDDLKKYLEPRCPRMVLSLKEGAREEDLDAVEAQIGCKLPDDYRCSYRIHNGQKLVVPGLLGSMALSNHYRSEDLLDVDTAAGGFQQRQGLKYCLPLTFCIHTGLSQYIAVEAAEGRNKNEVFYQCPDQMARNPAAIDMFIIGATFTDWFTSYVKNVVSGGFPIIRDQIFRYVHDPECVATTGDITVSVSTSFLPELSSVHPPHYFFTYRIRIEMSKDALPEKACQLDSRYWRITNAKGDVEEVQGPGVVGEFPIISPGRVYEYTSCTTFSTTSGYMEGYYTFHFLYFKDKIFNVAIPRFHMACPTFRVSIARLEMGPDEYEEMEEEEEEEEEEDEDDDSADMDESDEDDEEERRRRVFDVPIRRRRCSRLF [FBXO3]	53.9 °C	53.3 °C	-0.00208	-0.0407	0.236	0.497
CTSC	56.8 °C	59 °C	0.136	-0.0557	5.96	4.92
RALGAPA1	50.2 °C	50.8 °C	-0.0986	-0.16	-0.328	-0.518
MWKASAGHAVSIAQDDAGADDWETDPDFVNDVSEKEQRWGAKTVQGSGHQEHINIHKLRENVFQEHQTLKEKELETGPKASHGYGGKFGVEQDRMDKSAVGHEYQSKLSKHCSQVDSVRGFGGKFGVQMDRVDQSAVGFEYQGKTEKHASQKDYSSGFGGKYGVQADRVDKSAVGFDYQGKTEKHESQRDYSKGFGGKYGIDKDKVDKSAVGFEYQGKTEKHESQKDYVKGFGGKFGVQTDRQDKCALGWDHQEKLQLHESQKDYKTGFGGKFGVQSERQDSAAVGFDYKEKLAKHESQQDYSKGFGGKYGVQKDRMDKNASTFEDVTQVSSAYQKTVPVEAVTSKTSNIRANFENLAKEKEQEDRRKAEAERAQRMAKERQEQEEARRKLEEQARAKTQTPPVSPAPQPTEERLPSSPVYEDAASFKAELSYRGPVSGTEPEPVYSMEAADYREASSQQGLAYATEAVYESAEAPGHYPAEDSTYDEYENDLGITAVALYDYQAAGDDEISFDPDDIITNIEMIDDGWWRGVCKGRYGLFPANYVELRQ [CTTN]	60.6 °C	57.6 °C	-0.21	-0.0191	-3.16	-3.35
MARGERRRRAVPAEGVRTAERAARGGPGRRDGRGGGPRSTAGGVALAVVVLSLALGMSGRWVLAWYRARRAVTLHSAPPVLPADSSSPAVAPDLFWGTYRPHVYFGMKTRSPKPLLTGLMWAQQGTTPGTPKLRHTCEQGDGVGPYGWEFHDGLSFGRQHIQDGALRLTTEFVKRPGGQHGGDWSWRVTVEPQDSGTSALPLVSLFFYVVTDGKEVLLPEVGAKGQLKFISGHTSELGDFRFTLLPPTSPGDTAPKYGSYNVFWTSNPGLPLLTEMVKSRLNSWFQHRPPGAPPERYLGLPGSLKWEDRGPSGQGQGQFLIQQVTLKIPISIEFVFESGSAQAGGNQALPRLAGSLLTQALESHAEGFRERFEKTFQLKEKGLSSGEQVLGQAALSGLLGGIGYFYGQGLVLPDIGVEGSEQKVDPALFPPVPLFTAVPSRSFFPRGFLWDEGFHQLVVQRWDPSLTREALGHWLGLLNADGWIGREQILGDEARARVPPEFLVQRAVHANPPTLLLPVAHMLEVGDPDDLAFLRKALPRLHAWFSWLHQSQAGPLPLSYRWRGRDPALPTLLNPKTLPSGLDDYPRASHPSVTERHLDLRCWVALGARVLTRLAEHLGEAEVAAELGPLAASLEAAESLDELHWAPELGVFADFGNHTKAVQLKPRPPQGLVRVVGRPQPQLQYVDALGYVSLFPLLLRLLDPTSSRLGPLLDILADSRHLWSPFGLRSLAASSSFYGQRNSEHDPPYWRGAVWLNVNYLALGALHHYGHLEGPHQARAAKLHGELRANVVGNVWRQYQATGFLWEQYSDRDGRGMGCRPFHGWTSLVLLAMAEDY [MOGS]	52.9 °C	52.8 °C	-0.0875	-0.0215	3.25	3.97
MSFIPVAEDSDFPIHNLPYGVFSTRGDPRPRIGVAIGDQILDLSIIKHLFTGPVLSKHQDVFNQPTLNSFMGLGQAAWKEARVFLQNLLSVSQARLRDDTELRKCAFISQASATMHLPATIGDYTDFYSSRQHATNVGIMFRDKENALMPNWLHLPVGYHGRASSVVVSGTPIRRPMGQMKPDDSKPPVYGACKLLDMELEMAFFVGPGNRLGEPIPISKAHEHIFGMVLMNDWSARDIQKWEYVPLGPFLGKSFGTTVSPWVVPMDALMPFAVPNPKQDPRPLPYLCHDEPYTFDINLSVNLKGEGMSQAATICKSNFKYMYWTMLQQLTHHSVNGCNLRPGDLLASGTISGPEPENFGSMLELSWKGTKPIDLGNGQTRKFLLDGDEVIITGYCQGDGYRIGFGQCAGKVLPALLPS [FAH]	58.7 °C	59 °C	0.207	-0.0884	-0.791	-0.764
LTN1	50.1 °C	48.8 °C	-0.347	-0.0806	0.696	1.04
MAAESGSDFQQRRRRRRDPEEPEKTELSERELAVAVAVSQENDEENEERWVGPLPVEATLAKKRKVLEFERVYLDNLPSASMYERSYMHRDVITHVVCTKTDFIITASHDGHVKFWKKIEEGIEFVKHFRSHLGVIESIAVSSEGALFCSVGDDKAMKVFDVVNFDMINMLKLGYFPGQCEWIYCPGDAISSVAASEKSTGKIFIYDGRGDNQPLHIFDKLHTSPLTQIRLNPVYKAVVSSDKSGMIEYWTGPPHEYKFPKNVNWEYKTDTDLYEFAKCKAYPTSVCFSPDGKKIATIGSDRKVRIFRFVTGKLMRVFDESLSMFTELQQMRQQLPDMEFGRRMAVERELEKVDAVRLINIVFDETGHFVLYGTMLGIKVINVETNRCVRILGKQENIRVMQLALFQGIAKKHRAATTIEMKASENPVLQNIQADPTIVCTSFKKNRFYMFTKREPEDTKSADSDRDVFNEKPSKEEVMAATQAEGPKRVSDSAIIHTSMGDIHTKLFPVECPKTVENFCVHSRNGYYNGHTFHRIIKGFMIQTGDPTGTGMGGESIWGGEFEDEFHSTLRHDRPYTLSMANAGSNTNGSQFFITVVPTPWLDNKHTVFGRVTKGMEVVQRISNVKVNPKTDKPYEDVSIINITVK [PPWD1]	49.7 °C	49.8 °C	-0.381	-0.0306	0.382	0.58
MAAGAAEAAVAAVEEVGSAGQFEELLRLKAKSLLVVHFWAPWAPQCAQMNEVMAELAKELPQVSFVKLEAEGVPEVSEKYEISSVPTFLFFKNSQKIDRLDGAHAPELTKKVQRHASSGSFLPSANEHLKEDLNLRLKKLTHAAPCMLFMKGTPQEPRCGFSKQMVEILHKHNIQFSSFDIFSDEEVRQGLKAYSSWPTYPQLYVSGELIGGLDIIKELEASEELDTICPKAPKLEERLKVLTNKASVMLFMKGNKQEAKCGFSKQILEILNSTGVEYETFDILEDEEVRQGLKAYSNWPTYPQLYVKGELVGGLDIVKELKENGELLPILRGEN [GLRX3]	49.6 °C	49.9 °C	0.354	-0.111	2.12	1.6
MAAAAASHLNLDALREVLECPICMESFTEEQLRPKLLHCGHTICRQCLEKLLASSINGVRCPFCSKITRITSLTQLTDNLTVLKIIDTAGLSEAVGLLMCRSCGRRLPRQFCRSCGLVLCEPCREADHQPPGHCTLPVKEAAEERRRDFGEKLTRLRELMGELQRRKAALEGVSKDLQARYKAVLQEYGHEERRVQDELARSRKFFTGSLAEVEKSNSQVVEEQSYLLNIAEVQAVSRCDYFLAKIKQADVALLEETADEEEPELTASLPRELTLQDVELLKVGHVGPLQIGQAVKKPRTVNVEDSWAMEATASAASTSVTFREMDMSPEEVVASPRASPAKQRGPEAASNIQQCLFLKKMGAKGSTPGMFNLPVSLYVTSQGEVLVADRGNYRIQVFTRKGFLKEIRRSPSGIDSFVLSFLGADLPNLTPLSVAMNCQGLIGVTDSYDNSLKVYTLDGHCVACHRSQLSKPWGITALPSGQFVVTDVEGGKLWCFTVDRGSGVVKYSCLCSAVRPKFVTCDAEGTVYFTQGLGLNLENRQNEHHLEGGFSIGSVGPDGQLGRQISHFFSENEDFRCIAGMCVDARGDLIVADSSRKEILHFPKGGGYSVLIREGLTCPVGIALTPKGQLLVLDCWDHCIKIYSYHLRRYSTP [TRIM32]	51.8 °C	52.2 °C	-0.286	0.0329	0.931	0.623
